Test results as given in article PMC9342713.

Target: T1, DitR (Stenotrophomonas maltophilia K279a) (UniProt B2FL17)
T1 sequence: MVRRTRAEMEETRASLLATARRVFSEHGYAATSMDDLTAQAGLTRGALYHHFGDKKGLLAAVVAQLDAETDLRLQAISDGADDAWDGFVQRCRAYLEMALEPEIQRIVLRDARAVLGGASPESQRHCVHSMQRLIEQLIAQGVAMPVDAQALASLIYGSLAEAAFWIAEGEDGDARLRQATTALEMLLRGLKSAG
Assay: DNase I footprinting

GGGGGCGGCGAACAGGTCGCGGTAGGGGGTGGCCATCGGGATCTCCAGGGCAGCGGCTTGCCTGGCGCTCCCGGCGCCACGACAATACATACAGAGCGTATGAATAAGAGCCTACATTCATACGCGTCGTATGTAAATAATCATGCACTGCGTATGTAAGGAGCTCCGGATGGTCCGTCGCACCCGCGCCGAAATGGAAGAAAC (double strand) [mfsBC promoter fragment, 204 bp, Box I]
binding: binds

GGGGGCGGCGAACAGGTCGCGGTAGGGGGTGGCCATCGGGATCTCCAGGGCAGCGGCTTGCCTGGCGCTCCCGGCGCCACGACAATACATACAGAGCGTATGAATAAGAGCCTACATTCATACGCGTCGTATGTAAATAATCATGCACTGCGTATGTAAGGAGCTCCGGATGGTCCGTCGCACCCGCGCCGAAATGGAAGAAAC (double strand) [mfsBC promoter fragment, 204 bp, Box II]
binding: binds
